Drawing on publication PMC7689490, “Designed CXCR4 mimic acts as a soluble chemokine receptor that blocks atherogenic inflammation by agonist-specific targeting” (Nature Communications, 2020), this text covers Kd for two molecules.

“And” between values parts separate entries of the source, which are not always exact repeats. Equal values may be shown once.

Experiment [1] concerns the target Fluos-msR4M-LS (fluorescein-labelled ECL1[97–110] and ECL2[182–196] joined only by a disulfide bridge, no synthetic linker) (human), P61073. The experiment is described as follows: other fluorescence titration; Fluos-labelled CXCR4 ectodomain peptide at 5 nM titrated with unlabelled MIF, MIF(10xAla), CXCL12 or MIF peptide fragments; 10 mM sodium phosphate, pH 7.4, 1% HFIP; emission at 522 nm; apparent KD, 1/1 binding model. The following applies: remark: other sources report otherwise.

Experiment [2] has as its target Fluos-msR4M-LS (human), P61073. The experiment can be described thus: other fluorescence titration; 5 nM Fluos-labeled ectodomain peptide titrated with unlabeled MIF, MIF peptide or CXCL12; 10 mM sodium phosphate, pH 7.4, 1% HFIP; emission at 522 nm; apparent KD, 1/1 binding model; one constant for each of three curves. The following applies: remark: other sources report otherwise.

B1: macrophage migration-inhibitory factor (MIF), recombinant human, unlabelled, P14174 1-115 (natural protein)
chain: MPMFIVNTNVPRASVPDGFLSELTQQLAQATGKPPQYIAVHVVPDQLMAFGGSSEPCALCSLHSIGKIGGAQNRSYSKLLCGLLAERLRISPDRVYINYYDMNAANVGWNNSTFA
modifications: here or on the partner: disulfide bridge from Cys-109 to Cys-186 of the ECL2 chain; C-terminal amide; Fluos (fluorescein) label, chain and position not stated | disulfide bridge from Cys-186 to Cys-109 of the ECL1 chain; C-terminal amide
Consider B1, for which the Kd in experiment [1] is 6.9 nM.

B2: macrophage migration-inhibitory factor (MIF), recombinant human, P14174 1-115 (natural protein)
chain: MPMFIVNTNVPRASVPDGFLSELTQQLAQATGKPPQYIAVHVVPDQLMAFGGSSEPCALCSLHSIGKIGGAQNRSYSKLLCGLLAERLRISPDRVYINYYDMNAANVGWNNSTFA
modifications: here or on the partner: disulfide bridge from Cys-109 to Cys-186 of the ECL2 chain; C-terminal amide; Fluos label on the molecule (chain and position not stated) | disulfide bridge from Cys-186 to Cys-109 of the ECL1 chain; C-terminal amide
Turning to B2, the Kd in experiment [2] was 9 nM and 5 nM.
